Assay results published in PMC10296094 (Cancers, 2023).
Where no end group is shown, it is not given here.

Biological target: T1, His6-tagged human centrin1 (human, UniProt Q12798 1-172)
T1 sequence (looked up): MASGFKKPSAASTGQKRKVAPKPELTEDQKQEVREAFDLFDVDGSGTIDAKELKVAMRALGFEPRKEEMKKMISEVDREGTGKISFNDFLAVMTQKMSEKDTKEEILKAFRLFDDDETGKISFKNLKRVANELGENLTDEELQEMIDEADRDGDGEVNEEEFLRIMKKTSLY
Test: fluorescence polarisation; fluorescence anisotropy; 2-fold dilution series of centrin1, 100 nM Sfi1 peptide; 10 mM HEPES pH 7.4, 100 mM CaCl2, 0.005% v/v Tween 20; 45 min at RT
Conditions: both partners purified

Kd: 30 ± 12 nM
B1: fluorescein-labelled Sfi1 peptide (peptide)
peptide: REVAARESQHNRQLLRGALRRWK
modifications: not fully specified (residue 23)
notes: Sfi1 (mitotic spindle regulator), human, residues 670-692; also called F-Sfi1
